Laboratory results: publication PMC8705818, “Experimental Characterization of the Interaction between the N-Terminal SH3 Domain of Crkl and C3G” (International Journal of Molecular Sciences, 2021)
Ends that are not written are not given here. * marks the point of attachment. Dansyl = CN(C)c1cccc2c(S(=O)(=O)*)cccc12

Key:
[1] = biological target: dansyl-C3G277-296 peptide (UniProt Q13905); assay: Stopped-flow fluorescence kinetics (FRET from Trp164/Trp165 to dansyl; excitation 280 nm, 455 nm cut-off filter). kon from binding experiments, koff from separate displacement experiments, KD = koff/k; conditions: 10 °C, 0.5 M NaCl added to all buffers, 50 mM sodium acetate at pH 5.0 and 5.5, 50 mM Bis-Tris at pH 6.0 and 6.5, 50 mM Hepes at pH 7.0 and 7.5, 50 mM Tris-HCl
[2] = biological target: dansyl-C3G277-296 peptide (UniProt Q13905); assay: Stopped-flow fluorescence kinetics (FRET Trp to dansyl). kon from binding, koff from displacement, KD = koff/kon.; conditions: pH 7.0, 10 °C, Hepes 50 mM pH 7.0
[3] = biological target: dansylated C3G_(277–296) peptide; assay: stopped-flow kinetics (FRET, Trp to dansyl); variants, ionic strength series: 0.5 µM dansyl peptide mixed with N-SH3 variant (D138A 2.5-6.0 µM, E140A 3.0-5.0 µM); KD = koff/kon; 50 mM Hepes pH 7.5, 0.1 M NaCl, 10 °C
[4] = biological target: dansylated C3G_(277–296) peptide; assay: stopped-flow kinetics (FRET, Trp to dansyl); variants, ionic strength series: 0.5 µM dansyl peptide mixed with N-SH3 variant (D138A 2.5-6.0 µM, E140A 3.0-5.5 µM); KD = koff/kon; 50 mM Hepes pH 7.5, 0.15 M NaCl, 10 °C
[5] = biological target: dansylated C3G_(277–296) peptide; assay: stopped-flow kinetics (FRET, Trp to dansyl); variants, ionic strength series: 0.5 µM dansyl peptide mixed with N-SH3 variant (D138A 2.5-6.0 µM, E140A 3.0-5.5 µM); KD = koff/kon; 50 mM Hepes pH 7.5, 0.05 M NaCl, 10 °C
[6] = biological target: dansylated C3G_(277–296) peptide; assay: stopped-flow kinetics (FRET, Trp to dansyl); variants, ionic strength series: 0.5 µM dansyl peptide mixed with 2.0-4.5 µM N-SH3 variant; KD = koff/kon; 50 mM Hepes pH 7.5, 0 M NaCl, 10 °C
[7] = biological target: dansylated C3G_(277–296) peptide; assay: stopped-flow displacement kinetics; preincubated complex of D141A N-SH3 (2 µM) and dansyl-C3G (10 µM) mixed with excess nondansylated C3G (50 µM); Hepes 50 mM pH 7.0 with 20% w/v sucrose
[8] = biological target: dansylated C3G_(277–296) peptide; assay: stopped-flow kinetics (FRET, Trp to dansyl); ionic strength series: 0.5 µM dansyl peptide mixed with 1-5 µM N-SH3; koff from displacement with excess nondansylated peptide; KD = koff/kon; Hepes 50 mM pH 7.0, 0 M NaCl, 10 °C
[9] = biological target: dansylated C3G_(277–296) peptide; assay: stopped-flow kinetics (FRET, Trp to dansyl); pH series: 0.5 µM dansyl peptide mixed with 0.5-5.0 µM N-SH3; koff from displacement; Hepes 50 mM pH 7.5, 0.5 M NaCl, 10 °C
[10] = biological target: dansylated C3G_(277–296) peptide; assay: stopped-flow kinetics (FRET, Trp to dansyl); ionic strength series: 0.5 µM dansyl peptide mixed with 0.5-5 µM N-SH3; koff from displacement; KD = koff/kon; Hepes 50 mM pH 7.0, 0.15 M NaCl, 10 °C
[11] = biological target: dansylated C3G_(277–296) peptide; assay: stopped-flow kinetics (FRET, Trp to dansyl); ionic strength series: 0.5 µM dansyl peptide mixed with 0.5-5 µM N-SH3; koff from displacement; KD = koff/kon; Hepes 50 mM pH 7.0, 1 M NaCl, 10 °C
[12] = biological target: dansylated C3G_(277–296) peptide; assay: stopped-flow kinetics (FRET, Trp to dansyl); pH series: 0.5 µM dansyl peptide mixed with 0.5-5.0 µM N-SH3; koff from displacement; Bis-Tris 50 mM pH 6.5, 0.5 M NaCl, 10 °C
[13] = biological target: dansylated C3G_(277–296) peptide; assay: stopped-flow kinetics (FRET, Trp to dansyl); pH series: 0.5 µM dansyl peptide mixed with 1.0-5.0 µM N-SH3; koff from displacement; Bis-Tris 50 mM pH 6.0, 0.5 M NaCl, 10 °C
[14] = biological target: dansylated C3G_(277–296) peptide; assay: stopped-flow kinetics (FRET, Trp to dansyl); pH series: 0.5 µM dansyl peptide mixed with 1.5-6.0 µM N-SH3; koff from displacement; Tris-HCl 50 mM pH 9.0, 0.5 M NaCl, 10 °C
[15] = biological target: dansylated C3G_(277–296) peptide; assay: stopped-flow kinetics (FRET, Trp to dansyl); ionic strength series: 0.5 µM dansyl peptide mixed with 0.5-5 µM N-SH3; koff from displacement; KD = koff/kon; Hepes 50 mM pH 7.0, 0.5 M NaCl, 10 °C
[16] = biological target: dansylated C3G_(277–296) peptide; assay: stopped-flow kinetics (FRET, Trp to dansyl); pH series: 0.5 µM dansyl peptide mixed with 2.0-7.0 µM N-SH3; koff from displacement; 50 mM sodium acetate pH 5.5, 0.5 M NaCl, 10 °C
[17] = biological target: dansylated C3G_(277–296) peptide; assay: stopped-flow kinetics (FRET, Trp to dansyl); pH series: 0.5 µM dansyl peptide mixed with 1.5-6.0 µM N-SH3; koff from displacement; Tris-HCl 50 mM pH 8.5, 0.5 M NaCl, 10 °C
[18] = biological target: dansylated C3G_(277–296) peptide; assay: stopped-flow kinetics (FRET, Trp to dansyl); pH series: 0.5 µM dansyl peptide mixed with 1.5-6.0 µM N-SH3; koff from displacement; Tris-HCl 50 mM pH 8.0, 0.5 M NaCl, 10 °C
[19] = biological target: dansylated C3G_(277–296) peptide; assay: stopped-flow kinetics (FRET, Trp to dansyl); pH series: 0.5 µM dansyl peptide mixed with 1.5-6.0 µM N-SH3; koff from displacement; Hepes 50 mM pH 7.0, 0.5 M NaCl, 10 °C
[20] = biological target: dansylated C3G_(277–296) peptide; assay: stopped-flow kinetics (FRET, Trp to dansyl); pH series: 0.5 µM dansyl peptide mixed with 4.0-8.0 µM N-SH3; koff from displacement; 50 mM sodium acetate pH 5.0, 0.5 M NaCl, 10 °C
[21] = biological target: dansylated C3G_(277–296) peptide; assay: stopped-flow kinetics (FRET, Trp to dansyl); ionic strength series: 0.5 µM dansyl peptide mixed with 0.5-5 µM N-SH3; koff from displacement; KD = koff/kon; Hepes 50 mM pH 7.0, 0.3 M NaCl, 10 °C
[22] = biological target: N-SH3 domain of Crkl, D141A variant; assay: other fluorescence titration; equilibrium: 1 µM N-SH3 D141A constant, increasing dansyl-C3G; quenching of Trp fluorescence at 350 nm (excitation 280 nm); hyperbolic fit; 50 mM Hepes pH 7.0, 10 °C

Crkl N-terminal SH3 domain (N-SH3), wild type
koff ([1]; pH 5.0): 257 s⁻¹ | kon ([1]; pH 5.0): 4.4e+07 M⁻¹ s⁻¹ | koff ([1]; pH 5.5): 81 s⁻¹ | kon ([1]; pH 5.5): 3.7e+07 M⁻¹ s⁻¹ | koff ([1]; pH 6.0): 78 s⁻¹ | kon ([1]; pH 6.0): 1.5e+07 M⁻¹ s⁻¹ | koff ([1]; pH 6.5): 65 s⁻¹ | kon ([1]; pH 6.5): 6.5e+07 M⁻¹ s⁻¹ | koff ([1]; pH 7.0): 42 s⁻¹ | kon ([1]; pH 7.0): 5.2e+07 M⁻¹ s⁻¹ | koff ([1]; pH 7.5): 34 s⁻¹ | kon ([1]; pH 7.5): 5.1e+07 M⁻¹ s⁻¹ | koff ([1]; pH 8.0): 46 s⁻¹ | kon ([1]; pH 8.0): 5.6e+07 M⁻¹ s⁻¹ | koff ([1]; pH 8.5): 40 s⁻¹ | kon ([1]; pH 8.5): 6.8e+07 M⁻¹ s⁻¹ | koff ([1]; pH 9.0): 39 s⁻¹ | kon ([1]; pH 9.0): 3.9e+07 M⁻¹ s⁻¹ | koff ([2]; 0 M NaCl added): 12 s⁻¹ | kon ([2]; 0 M NaCl added): 1.3e+08 M⁻¹ s⁻¹ | koff ([2]; 0.15 M NaCl): 23 s⁻¹ | kon ([2]; 0.15 M NaCl): 9.6e+07 M⁻¹ s⁻¹ | koff ([2]; 0.3 M NaCl): 32 s⁻¹ | kon ([2]; 0.3 M NaCl): 8.3e+07 M⁻¹ s⁻¹ | koff ([2]; 0.5 M NaCl): 34 s⁻¹ | kon ([2]; 0.5 M NaCl): 5.1e+07 M⁻¹ s⁻¹ | koff ([2]; 1.0 M NaCl): 51 s⁻¹ | kon ([2]; 1.0 M NaCl): 6.8e+07 M⁻¹ s⁻¹

N-SH3 domain of Crkl, D138A variant (domain or fragment)
Kd [3]: 3.8 µM | koff [3]: 183 s⁻¹ | kon [3]: 4.8e+07 M⁻¹ s⁻¹ | Kd [4]: 22 µM | koff [4]: 254 s⁻¹ | kon [4]: 1.2e+07 M⁻¹ s⁻¹ | Kd [5]: 2.6 µM | koff [5]: 212 s⁻¹ | kon [5]: 8.1e+07 M⁻¹ s⁻¹ | Kd [6]: 0.9 µM | koff [6]: 139 s⁻¹ | kon [6]: 1.58e+08 M⁻¹ s⁻¹

N-SH3 domain of Crkl, D141A variant (domain or fragment)
koff [7]: 800 s⁻¹

N-SH3 domain of Crkl, E140A variant (domain or fragment)
Kd [3]: 3.9 µM | koff [3]: 302 s⁻¹ | kon [3]: 7.7e+07 M⁻¹ s⁻¹ | Kd [4]: 4.2 µM | koff [4]: 339 s⁻¹ | kon [4]: 8.1e+07 M⁻¹ s⁻¹ | Kd [5]: 3.7 µM | koff [5]: 330 s⁻¹ | kon [5]: 8.9e+07 M⁻¹ s⁻¹ | Kd [6]: 3.3 µM | koff [6]: 254 s⁻¹ | kon [6]: 7.8e+07 M⁻¹ s⁻¹

N-terminal SH3 domain of Crkl, wild type (domain or fragment)
Kd [8]: 0.09 µM | koff [8]: 12 s⁻¹ | kon [8]: 1.3e+08 M⁻¹ s⁻¹ | Kd [9]: 0.7 µM | koff [9]: 34 s⁻¹ | kon [9]: 5.1e+07 M⁻¹ s⁻¹ | Kd [10]: 0.24 µM | koff [10]: 23 s⁻¹ | kon [10]: 9.6e+07 M⁻¹ s⁻¹ | Kd [11]: 0.75 µM | koff [11]: 51 s⁻¹ | kon [11]: 6.8e+07 M⁻¹ s⁻¹ | Kd [12]: 1 µM | koff [12]: 65 s⁻¹ | kon [12]: 6.5e+07 M⁻¹ s⁻¹ | Kd [13]: 5.4 µM | koff [13]: 78 s⁻¹ | kon [13]: 1.5e+07 M⁻¹ s⁻¹ | Kd [14]: 1 µM | koff [14]: 39 s⁻¹ | kon [14]: 3.9e+07 M⁻¹ s⁻¹ | Kd [15]: 0.66 µM | koff [15]: 34 s⁻¹ | kon [15]: 5.1e+07 M⁻¹ s⁻¹ | Kd [16]: 2.2 µM | koff [16]: 81 s⁻¹ | kon [16]: 3.7e+07 M⁻¹ s⁻¹ | Kd [17]: 0.6 µM | koff [17]: 40 s⁻¹ | kon [17]: 6.8e+07 M⁻¹ s⁻¹ | Kd [18]: 0.8 µM | koff [18]: 46 s⁻¹ | kon [18]: 5.6e+07 M⁻¹ s⁻¹ | Kd [19]: 0.8 µM | koff [19]: 42 s⁻¹ | kon [19]: 5.2e+07 M⁻¹ s⁻¹ | Kd [20]: 5.9 µM | koff [20]: 257 s⁻¹ | kon [20]: 4.4e+07 M⁻¹ s⁻¹ | Kd [21]: 0.39 µM | koff [21]: 32 s⁻¹ | kon [21]: 8.3e+07 M⁻¹ s⁻¹

B1: dansylated C3G_(277–296) peptide (peptide)
peptide: Dansyl-VVDNSPPPALPPKKRQSAPS
Kd [22]: 1.07 µM
